The text below walks through data of IntAct's records for PubMed 16107882.

The chains are these.
B1: Bud site selection protein 14 (Saccharomyces cerevisiae), P27637 (parent)
chain: MSNKEEHVDETSASGVKEVSSIAARHDNGYAPSLITSTSGMDSFQSHALLNDPTLIEDYSDIINNRPTSGSKLTLGNEDSESMGGSVVVTPTSNKSSPFNSKLNILSNAAEKGHDVLRNRDDDKELEEENVEKHMHSNSKRDQRHYKENSSELPDSYDYSDSEFEDNLERRLQEIETDSVDSADKDEVHFSVNNTMNPDVDDFSDGLKYAISEDEDEEENYSDDDDFDRKFQDSGFQGEKDDLEEENDDYQPLSPPRELDPDKLYALYAFNGHDSSHCQLGQDEPCILLNDQDAYWWLVKRITDGKIGFAPAEILETFPERLARLNCWKNENMSSQSVASSDSKDDSISSGNKNQSDAESIIPTPALNGYGKGNKSVSFNDVVGYADRFIDDAIEDTSLDSNDDGGEGNGQSYDDDVDNDKETKVTHRDEYTEAKLNFGKFQDDDTSDVVSDVSFSTSLNTPLNVKKVRRQDNKNESEPKTSSSKDREDDYNANRYVGQEKSEPVDSDYDTDLKKVFEAPRMPFANGMAKSDSQNSLSTIGEFSPSSSEWTNESPSTPIVEESSSIPSSRAIKDISQYIHAKSKIEETTNVENTEGQIQASLGSSGGMANQTDAEQPKEELEKHHSTPEEEKQSTLSLHSSSEEDFYMDEQRAVSSASINSSLSGSRALSNTNMSDPASKPNSLVQHLYAPVFDRMDVLMKQLDEIIRK

In the first assay the parent is B1. Conditions: with pp12_yeast GLC7, P32598.
Chain of pp12_yeast GLC7, P32598 (P32598 whole entry): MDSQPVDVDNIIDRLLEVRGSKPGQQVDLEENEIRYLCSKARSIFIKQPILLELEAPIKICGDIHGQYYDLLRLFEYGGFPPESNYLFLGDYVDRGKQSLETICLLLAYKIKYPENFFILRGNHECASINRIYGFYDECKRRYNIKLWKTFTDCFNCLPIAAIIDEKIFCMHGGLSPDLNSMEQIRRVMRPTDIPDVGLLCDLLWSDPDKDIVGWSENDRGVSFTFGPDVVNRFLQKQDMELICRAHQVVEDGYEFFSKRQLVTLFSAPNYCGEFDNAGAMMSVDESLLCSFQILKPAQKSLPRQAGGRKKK
Regarding F379A, the “effect of a mutation on the interaction” value is on record as “decreasing interaction”.

Regarding V377A, the “effect of a mutation on the interaction” value is “decreasing interaction”.

The variants in another assay derive from B1. As to conditions: with bem2_yeast BEM2, P39960.
Chain of bem2_yeast BEM2, P39960 (P39960 whole entry): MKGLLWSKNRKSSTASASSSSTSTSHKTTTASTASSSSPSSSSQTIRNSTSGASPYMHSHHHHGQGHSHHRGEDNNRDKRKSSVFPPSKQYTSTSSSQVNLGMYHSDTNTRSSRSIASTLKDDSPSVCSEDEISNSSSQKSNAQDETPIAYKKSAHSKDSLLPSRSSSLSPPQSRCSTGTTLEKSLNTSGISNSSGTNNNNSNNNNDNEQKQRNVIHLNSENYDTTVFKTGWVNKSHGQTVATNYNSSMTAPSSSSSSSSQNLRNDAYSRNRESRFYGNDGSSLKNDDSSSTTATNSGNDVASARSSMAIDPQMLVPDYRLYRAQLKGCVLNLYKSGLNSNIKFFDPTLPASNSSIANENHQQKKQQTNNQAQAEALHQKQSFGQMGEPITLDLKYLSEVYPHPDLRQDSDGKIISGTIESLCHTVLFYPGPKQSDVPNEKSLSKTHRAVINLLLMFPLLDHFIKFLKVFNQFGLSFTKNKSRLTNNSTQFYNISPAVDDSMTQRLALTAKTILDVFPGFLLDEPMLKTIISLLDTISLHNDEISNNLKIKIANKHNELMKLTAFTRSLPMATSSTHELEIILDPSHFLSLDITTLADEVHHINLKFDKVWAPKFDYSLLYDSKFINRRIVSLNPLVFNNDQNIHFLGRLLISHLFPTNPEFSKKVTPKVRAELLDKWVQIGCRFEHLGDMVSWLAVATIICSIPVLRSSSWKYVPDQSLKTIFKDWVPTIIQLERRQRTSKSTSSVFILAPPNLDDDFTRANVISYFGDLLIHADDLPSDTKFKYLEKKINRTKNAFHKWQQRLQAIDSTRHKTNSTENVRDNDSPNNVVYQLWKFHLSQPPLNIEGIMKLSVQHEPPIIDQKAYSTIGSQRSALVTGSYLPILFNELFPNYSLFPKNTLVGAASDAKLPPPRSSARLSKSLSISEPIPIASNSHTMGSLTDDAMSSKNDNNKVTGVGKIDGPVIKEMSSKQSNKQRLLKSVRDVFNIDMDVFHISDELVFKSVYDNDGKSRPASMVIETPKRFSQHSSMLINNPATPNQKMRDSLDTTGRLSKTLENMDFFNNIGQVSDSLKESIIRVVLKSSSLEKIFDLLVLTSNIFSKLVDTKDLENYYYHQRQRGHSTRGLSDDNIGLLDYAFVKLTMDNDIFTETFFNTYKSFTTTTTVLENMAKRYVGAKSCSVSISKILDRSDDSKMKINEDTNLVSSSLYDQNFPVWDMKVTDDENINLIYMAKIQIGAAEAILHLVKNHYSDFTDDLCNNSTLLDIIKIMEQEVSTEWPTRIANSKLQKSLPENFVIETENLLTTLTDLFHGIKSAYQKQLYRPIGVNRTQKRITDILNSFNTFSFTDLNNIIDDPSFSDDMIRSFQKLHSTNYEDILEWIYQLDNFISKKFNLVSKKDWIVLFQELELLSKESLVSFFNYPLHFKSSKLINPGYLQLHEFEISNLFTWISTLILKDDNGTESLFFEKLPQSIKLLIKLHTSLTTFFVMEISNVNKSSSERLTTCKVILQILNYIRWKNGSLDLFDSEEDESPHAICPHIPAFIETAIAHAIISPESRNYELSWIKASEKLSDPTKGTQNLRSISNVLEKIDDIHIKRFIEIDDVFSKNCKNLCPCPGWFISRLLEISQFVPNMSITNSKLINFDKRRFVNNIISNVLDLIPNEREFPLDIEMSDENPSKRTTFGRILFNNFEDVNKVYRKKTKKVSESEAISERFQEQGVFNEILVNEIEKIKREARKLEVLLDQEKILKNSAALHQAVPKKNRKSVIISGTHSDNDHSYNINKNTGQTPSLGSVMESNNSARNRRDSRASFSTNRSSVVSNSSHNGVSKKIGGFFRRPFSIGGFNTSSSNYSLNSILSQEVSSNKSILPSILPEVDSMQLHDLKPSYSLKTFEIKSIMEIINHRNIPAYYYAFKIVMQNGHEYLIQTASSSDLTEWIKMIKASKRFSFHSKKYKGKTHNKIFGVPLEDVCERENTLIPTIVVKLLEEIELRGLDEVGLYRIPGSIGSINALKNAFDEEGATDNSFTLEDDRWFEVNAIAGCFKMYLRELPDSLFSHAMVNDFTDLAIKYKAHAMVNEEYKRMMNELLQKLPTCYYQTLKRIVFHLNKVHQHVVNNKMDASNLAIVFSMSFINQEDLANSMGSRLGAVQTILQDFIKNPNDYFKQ
In the case of F379A, the “effect of a mutation on the interaction” value is given as “decreasing interaction”.
